Experiments:
[1] = molecular target: T1, VEGF (VEGF 1-165 aa, R&D Systems 293-VE-010) (UniProt P15692 27-191); assay: Direct bind ELISA, VEGF coated on plate; VEGF domain N-term., HC long/LC short
T1 construct: bought reagent; also called vascular endothelial growth factor

[2] = molecular target: T1, VEGF (VEGF 1-165 aa, R&D Systems …); assay: Direct bind ELISA, VEGF coated on plate; VEGF domain N-term., HC short/LC short
[3] = molecular target: T1, VEGF (VEGF 1-165 aa, R&D Systems …); assay: Direct bind ELISA, VEGF coated on plate; VEGF domain C-term., HC long/LC long
[4] = molecular target: T1, VEGF (VEGF 1-165 aa, R&D Systems …); assay: Direct bind ELISA, VEGF coated on plate; VEGF domain C-term., HC short/LC short
[5] = molecular target: T1, VEGF (VEGF 1-165 aa, R&D Systems …); assay: Direct bind ELISA, VEGF coated on plate; VEGF domain C-term., HC long/LC short

T1 sequence (P15692 other isoform, or with tags, fused parts or gaps limits assumed): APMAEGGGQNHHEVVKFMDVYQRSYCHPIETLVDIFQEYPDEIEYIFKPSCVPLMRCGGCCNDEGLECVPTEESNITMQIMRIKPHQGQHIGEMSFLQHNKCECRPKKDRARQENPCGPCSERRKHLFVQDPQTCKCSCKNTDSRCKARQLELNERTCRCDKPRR

B1: DVD504 (bispecific antibody, human IgG1, kappa)
heavy: not shown
light: DIQMTQSPSSLSASVGDRVTITCRASQVIRRSLAWYQQKPGKAPKLLIYAASNLASGVPSRFSGSGSGTDFTLTISSLQPEDFATYYCQQSNTSPLTFGQGTKVEIKRTVAAPDIQMTQSSSYLSVSLGGRVTITCKASDHINNWLAWYQQKPGNAPRLLISGATSLETGVPSRFSGSGSGKDYTLSITSLQTEDVATYYCQQYWSIPLTFGAGTKLELKRTVAAPSVFIFPPSDEQLKSGTASVVCLLNNFYPREAKVQWKVDNALQSGNSQESVTEQDSKDSTYSLSSTLTLSKADYEKHKVYACEVTHQGLSSPVTKSFNRGEC
notes: DVD-Ig; N-term; AB071 (VEGF), C-term; AB072 (DLL4); HC linker long, LC linker short; also called DVD-Ig DVD504; DVD504H/DVD504L
Binder B1 has an EC50 [1] of 16.7 nM.

B2: DVD490 (bispecific antibody, human IgG1, kappa)
heavy: not shown
light: DIQMTQSPSSLSASVGDRVTITCRASQDVSTAVAWYQQKPGKAPKLLIYSASFLYSGVPSRFSGSGSGTDFTLTISSLQPEDFATYYCQQSYTTPPTFGQGTKVEIKRTVAAPDIQMTQSSSYLSVSLGGRVTITCKASDHINNWLAWYQQKPGNAPRLLISGATSLETGVPSRFSGSGSGKDYTLSITSLQTEDVATYYCQQYWSIPLTFGAGTKLELKRTVAAPSVFIFPPSDEQLKSGTASVVCLLNNFYPREAKVQWKVDNALQSGNSQESVTEQDSKDSTYSLSSTLTLSKADYEKHKVYACEVTHQGLSSPVTKSFNRGEC
notes: DVD-Ig; N-term; AB070 (VEGF), C-term; AB072 (DLL4); HC linker short, LC linker short; also called DVD-Ig DVD490; DVD490H/DVD490L
In the case of B2, the EC50 [2] is reported as 6.7 nM.

B3: DVD502 (bispecific antibody, human IgG1, kappa)
heavy: not shown
light: DIQMTQSPSSLSASVGDRVTITCRASQDVSTAVAWYQQKPGKAPKLLIYSASFLYSGVPSRFSGSGSGTDFTLTISSLQPEDFATYYCQQSYTTPPTFGQGTKVEIKRTVAAPDIQMTQSSSYLSVSLGGRVTITCKASDHINNWLAWYQQKPGNAPRLLISGATSLETGVPSRFSGSGSGKDYTLSITSLQTEDVATYYCQQYWSIPLTFGAGTKLELKRTVAAPSVFIFPPSDEQLKSGTASVVCLLNNFYPREAKVQWKVDNALQSGNSQESVTEQDSKDSTYSLSSTLTLSKADYEKHKVYACEVTHQGLSSPVTKSFNRGEC
notes: DVD-Ig; N-term; AB070 (VEGF), C-term; AB072 (DLL4); HC linker long, LC linker short; also called DVD-Ig DVD502; DVD502H/DVD502L
Work on B3 yielded an EC50 [1] of 3.25 nM.

B4: DVD495 (bispecific antibody, human IgG1, kappa)
heavy: not shown
light: DIQMTQSSSYLSVSLGGRVTITCKASDHINNWLAWYQQKPGNAPRLLISGATSLETGVPSRFSGSGSGKDYTLSITSLQTEDVATYYCQQYWSIPLTFGAGTKLELKRTVAAPSVFIFPPDIQMTQSPSSLSASVGDRVTITCRASQDVSTAVAWYQQKPGKAPKLLIYSASFLYSGVPSRFSGSGSGTDFTLTISSLQPEDFATYYCQQSYTTPPTFGQGTKVEIKRTVAAPSVFIFPPSDEQLKSGTASVVCLLNNFYPREAKVQWKVDNALQSGNSQESVTEQDSKDSTYSLSSTLTLSKADYEKHKVYACEVTHQGLSSPVTKSFNRGEC
notes: DVD-Ig; N-term; AB072 (DLL4), C-term; AB070 (VEGF); HC linker long, LC linker long; also called DVD-Ig DVD495; DVD495H/DVD495L
With B4 the EC50 [3] was 70 nM.

B5: DVD489 (bispecific antibody, human IgG1, kappa, L234A L235A)
heavy: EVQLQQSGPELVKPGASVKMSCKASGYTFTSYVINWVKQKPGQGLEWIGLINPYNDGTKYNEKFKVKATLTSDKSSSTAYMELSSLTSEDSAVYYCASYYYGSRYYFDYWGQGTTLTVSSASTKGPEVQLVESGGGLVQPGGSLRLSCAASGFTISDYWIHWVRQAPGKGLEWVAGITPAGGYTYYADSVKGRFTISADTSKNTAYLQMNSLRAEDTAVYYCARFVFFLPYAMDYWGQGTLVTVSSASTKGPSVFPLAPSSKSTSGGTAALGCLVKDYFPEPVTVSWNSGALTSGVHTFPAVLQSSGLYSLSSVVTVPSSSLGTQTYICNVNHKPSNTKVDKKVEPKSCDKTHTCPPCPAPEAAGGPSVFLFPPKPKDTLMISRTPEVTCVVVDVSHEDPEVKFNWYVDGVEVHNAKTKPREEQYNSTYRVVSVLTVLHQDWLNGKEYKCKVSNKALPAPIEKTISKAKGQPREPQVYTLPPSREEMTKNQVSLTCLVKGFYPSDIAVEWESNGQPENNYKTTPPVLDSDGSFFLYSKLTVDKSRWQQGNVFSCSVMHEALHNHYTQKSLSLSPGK
light: DIQMTQSSSYLSVSLGGRVTITCKASDHINNWLAWYQQKPGNAPRLLISGATSLETGVPSRFSGSGSGKDYTLSITSLQTEDVATYYCQQYWSIPLTFGAGTKLELKRTVAAPDIQMTQSPSSLSASVGDRVTITCRASQDVSTAVAWYQQKPGKAPKLLIYSASFLYSGVPSRFSGSGSGTDFTLTISSLQPEDFATYYCQQSYTTPPTFGQGTKVEIKRTVAAPSVFIFPPSDEQLKSGTASVVCLLNNFYPREAKVQWKVDNALQSGNSQESVTEQDSKDSTYSLSSTLTLSKADYEKHKVYACEVTHQGLSSPVTKSFNRGEC
notes: DVD-Ig; N-term; AB072 (DLL4), C-term; AB070 (VEGF); HC linker short, LC linker short; also called DVD-Ig DVD489; DVD489H/DVD489L
With B5 the EC50 [4] was 181 nM.

B6: DVD501 (bispecific antibody, human IgG1, kappa)
heavy: not shown
light: DIQMTQSSSYLSVSLGGRVTITCKASDHINNWLAWYQQKPGNAPRLLISGATSLETGVPSRFSGSGSGKDYTLSITSLQTEDVATYYCQQYWSIPLTFGAGTKLELKRTVAAPDIQMTQSPSSLSASVGDRVTITCRASQDVSTAVAWYQQKPGKAPKLLIYSASFLYSGVPSRFSGSGSGTDFTLTISSLQPEDFATYYCQQSYTTPPTFGQGTKVEIKRTVAAPSVFIFPPSDEQLKSGTASVVCLLNNFYPREAKVQWKVDNALQSGNSQESVTEQDSKDSTYSLSSTLTLSKADYEKHKVYACEVTHQGLSSPVTKSFNRGEC
notes: DVD-Ig; N-term; AB072 (DLL4), C-term; AB070 (VEGF); HC linker long, LC linker short; also called DVD-Ig DVD501; DVD501H/DVD501L
With B6 the EC50 [5] was 45.2 nM.

B7: DVD503 (bispecific antibody, human IgG1, kappa)
heavy: not shown
light: DIQMTQSSSYLSVSLGGRVTITCKASDHINNWLAWYQQKPGNAPRLLISGATSLETGVPSRFSGSGSGKDYTLSITSLQTEDVATYYCQQYWSIPLTFGAGTKLELKRTVAAPDIQMTQSPSSLSASVGDRVTITCRASQVIRRSLAWYQQKPGKAPKLLIYAASNLASGVPSRFSGSGSGTDFTLTISSLQPEDFATYYCQQSNTSPLTFGQGTKVEIKRTVAAPSVFIFPPSDEQLKSGTASVVCLLNNFYPREAKVQWKVDNALQSGNSQESVTEQDSKDSTYSLSSTLTLSKADYEKHKVYACEVTHQGLSSPVTKSFNRGEC
notes: DVD-Ig; N-term; AB072 (DLL4), C-term; AB071 (VEGF); HC linker long, LC linker short; also called DVD-Ig DVD503; DVD503H/DVD503L
In the case of B7, the EC50 [5] is reported as 430 nM.

B8: DVD525 (bispecific antibody, human IgG1, kappa)
heavy: not shown
light: QAVVTQESALTTSPGETVTLTCRSSTGAVTTSNYANWVQEKPDHLFTGLIGGTNNRAPGVPARFSGSLIGDKAALTITGAQTEDEAIYFCALWYSNHWVFGGGTKLTVLGQPKAAPDIQMTQSPSSLSASVGDRVTITCRASQDVSTAVAWYQQKPGKAPKLLIYSASFLYSGVPSRFSGSGSGTDFTLTISSLQPEDFATYYCQQSYTTPPTFGQGTKVEIKRTVAAPSVFIFPPSDEQLKSGTASVVCLLNNFYPREAKVQWKVDNALQSGNSQESVTEQDSKDSTYSLSSTLTLSKADYEKHKVYACEVTHQGLSSPVTKSFNRGEC
notes: DVD-Ig; N-term; AB073 (DLL4), C-term; AB070 (VEGF); HC linker long, LC linker short; also called DVD-Ig DVD525; DVD525H/DVD525L
With B8 the EC50 [5] was 21.8 nM.
